Measurements published in patent US20110281938, “APTAMERS TO TISSUE FACTOR PATHWAY INHIBITOR AND THEIR USE AS BLEEDING DISORDER THERAPEUTICS” (Baxter Healthcare S.A., published 2011).
Positions count from the first letter of the chain named.

B1: ARC19452 (XNA)
mixed: GGAATAUACUUGGCUCGUUAGGUGCGUAUAUA
modifications: 2'-OMe except dC9, dC14, dC16, dC25 and dT5; 3' idT
B2: ARC19453 (XNA)
RNA: B1 mixed with T5U
modifications: 2'-OMe except dC9, dC14, dC16, dC25 and dA6; 3' idT
B3: ARC19454 (XNA)
mixed: B1 mixed with T5U, U7T
modifications: 2'-OMe except dC9, dC14, dC16, dC25 and dT7; 3' idT
B4: ARC19455 (XNA)
RNA: B1 mixed with T5U
modifications: 2'-OMe except dC9, dC14, dC16, dC25 and dA8; 3' idT
B5: ARC19457 (XNA)
mixed: B1 mixed with T5U, U11T
modifications: 2'-OMe except dC9, dC14, dC16, dC25 and dT11; 3' idT
B6: ARC19458 (XNA)
RNA: B1 mixed with T5U
modifications: 2'-OMe except dC9, dC14, dC16, dC25 and dG12; 3' idT
B7: ARC19459 (XNA)
RNA: B1 mixed with T5U
modifications: 2'-OMe except dC9, dC14, dC16, dC25 and dG13; 3' idT
B8: ARC19460 (XNA)
mixed: B1 mixed with T5U, U15T
modifications: 2'-OMe except dC9, dC14, dC16, dC25 and dT15; 3' idT
B9: ARC19461 (XNA)
RNA: B1 mixed with T5U
modifications: 2'-OMe except dC9, dC14, dC16, dC25 and dG17; 3' idT
B10: ARC19463 (XNA)
mixed: B1 mixed with T5U, U19T
modifications: 2'-OMe except dC9, dC14, dC16, dC25 and dT19; 3' idT
B11: ARC19464 (XNA)
RNA: B1 mixed with T5U
modifications: 2'-OMe except dC9, dC14, dC16, dC25 and dA20; 3' idT
B12: ARC19465 (XNA)
RNA: B1 mixed with T5U
modifications: 2'-OMe except dC9, dC14, dC16, dC25 and dG21; 3' idT
B13: ARC19466 (XNA)
RNA: B1 mixed with T5U
modifications: 2'-OMe except dC9, dC14, dC16, dC25 and dG22; 3' idT
B14: ARC19467 (XNA)
mixed: B1 mixed with T5U, U23T
modifications: 2'-OMe except dC9, dC14, dC16, dC25 and dT23; 3' idT
B15: ARC19468 (XNA)
RNA: B1 mixed with T5U
modifications: 2'-OMe except dC9, dC14, dC16, dC25 and dG24; 3' idT
B16: ARC19470 (XNA)
mixed: B1 mixed with T5U, U27T
modifications: 2'-OMe except dC9, dC14, dC16, dC25 and dT27; 3' idT
B17: ARC19471 (XNA)
RNA: B1 mixed with T5U
modifications: 2'-OMe except dC9, dC14, dC16, dC25 and dA28; 3' idT
B18: ARC19472 (XNA)
mixed: B1 mixed with T5U, U29T
modifications: 2'-OMe except dC9, dC14, dC16, dC25 and dT29; 3' idT
B19: ARC19494 (XNA)
RNA: B1 mixed with T5U
modifications: 2'-OMe except dC9, dC16, dC25; 2'-F C14; 3' idT
B20: ARC19473 (XNA)
RNA: B1 mixed with T5U
modifications: 2'-OMe except dC9, dC14, dC16, dC25 and dA30; 3' idT
B21: ARC19474 (XNA)
mixed: B1 mixed with T5U, U31T
modifications: 2'-OMe except dC9, dC14, dC16, dC25 and dT31; 3' idT
B22: ARC19475 (XNA)
RNA: B1 mixed with T5U
modifications: 2'-OMe except dC9, dC14, dC16, dC25 and dA32; 3' idT
B23: ARC33867 (XNA)
RNA: B1 mixed with T5U
modifications: 2'-OMe except dC9, dC14, dC16, dC25 and dU5; 3' idT
B24: ARC33868 (XNA)
RNA: B1 mixed with T5U
modifications: 2'-OMe except dC9, dC14, dC16, dC25 and dU7; 3' idT
B25: ARC33871 (XNA)
RNA: B1 mixed with T5U
modifications: 2'-OMe except dC9, dC14, dC16, dC25 and dU15; 3' idT

Each binder was assayed against TFPI (tissue factor pathway inhibitor, full-length) (Homo sapiens, UniProt P10646 SEQ:1-276) (assay: competition; dot-blot). Settings: tags: American Diagnostica 4500PC/4900PC, E. coli expressed.
TFPI (tissue factor pathway inhibitor, full-length), sequence (P10646 29-304): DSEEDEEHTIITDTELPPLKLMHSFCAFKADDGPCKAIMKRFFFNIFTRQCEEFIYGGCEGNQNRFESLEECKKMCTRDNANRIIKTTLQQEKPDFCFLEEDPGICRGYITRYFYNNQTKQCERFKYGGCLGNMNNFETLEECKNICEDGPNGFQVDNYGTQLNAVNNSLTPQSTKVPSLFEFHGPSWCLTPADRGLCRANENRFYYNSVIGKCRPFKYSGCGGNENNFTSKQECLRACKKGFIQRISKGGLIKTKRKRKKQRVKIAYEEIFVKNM
Description: Each molecule was evaluated for binding to tissue factor pathway inhibitor (TFPI) in a binding-competition assay. For these experiments, 10 nM human TFPI (American Diagnostica, Stamford, Conn., catalog #4500PC) was incubated with trace amounts of radiolabeled ARC17480 and 5000 nM, 1666.67 nM, 555.56 nM, 185.19 nM, 61.73 nM, 20.58 nM, 6.86 nM, 2.29 nM, 0.76 nM or 0.25 nM of unlabeled competitor aptamer. ARC17480 was included as a competitor in every experiment as a control. For each molecule, the percentage of radiolabeled ARC17480 bound at each competitor aptamer concentration was used for analysis. The percentage of radiolabeled ARC17480 bound was plotted as a function of aptamer concentration and fit to the equation y=(max/(1+x/IC₅₀))+int, where y=the percentage of radiolabeled ARC17480 bound, x=the concentration of aptamer, max=the maximum radiolabeled ARC17480 bound, and int=the y-intercept, to generate an IC₅₀ value for binding-competition. The IC₅₀ of each aptamer was compared to the IC₅₀ of ARC17480 that was evaluated in the same experiment. A substitution was considered tolerated in the binding-competition assay if the IC₅₀ of that molecule was not more than 5-fold greater than that of ARC17480 evaluated in the same experiment. Tolerated substitutions are indicated in Table 37 as meeting the assay criteria (“yes”) or not meeting the assay criteria (“no”).

Binding signal, ≤ 5 fold IC50 vs ARC17480:
B1
B2
B3
B4
B5
B6
B7
B8
B9
B10
B11
B12
B13
B14
B15
B16
B17
B18
B19
B20
B21
B22
B23
B24
B25
